This note sets out measurements from patent publication US20240207421A1, “NERVE TARGETING PEPTIDES AND METHODS OF USE” (ALUME BIOSCIENCES, INC., priority 2020, published 2024).

The target in assay [1] is Human MPZ (human) (UniProt P25189). Put plainly: phage display R3, NGS count.
For assay [2] the target is unchanged. Description: phage display, NGS count.
Another assay has as its target Human Nidogen-2 (human) (UniProt Q14112). Put plainly: phage display, NGS count.
Assay [3] concerns the target T1, Human Myelin Basic Protein (Homo sapiens, UniProt P02686). Description: phage display R3, NGS count.
Assay [4] concerns the target T1, Human Myelin Basic Protein. Description: phage display, NGS count.
In assay [5] the target is T1, Human Myelin Basic Protein. Description: phage display R3, NGS count. The source holds these as a separate data set.

T1 sequence (P02686 135-304 limits assumed): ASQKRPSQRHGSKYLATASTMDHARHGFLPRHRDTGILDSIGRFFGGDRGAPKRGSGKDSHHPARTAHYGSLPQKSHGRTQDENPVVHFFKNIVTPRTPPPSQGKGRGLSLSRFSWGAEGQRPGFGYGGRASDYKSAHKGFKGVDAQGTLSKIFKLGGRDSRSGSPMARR
Chain of Human Nidogen-2 (human) (Q14112 31-1375 limits assumed): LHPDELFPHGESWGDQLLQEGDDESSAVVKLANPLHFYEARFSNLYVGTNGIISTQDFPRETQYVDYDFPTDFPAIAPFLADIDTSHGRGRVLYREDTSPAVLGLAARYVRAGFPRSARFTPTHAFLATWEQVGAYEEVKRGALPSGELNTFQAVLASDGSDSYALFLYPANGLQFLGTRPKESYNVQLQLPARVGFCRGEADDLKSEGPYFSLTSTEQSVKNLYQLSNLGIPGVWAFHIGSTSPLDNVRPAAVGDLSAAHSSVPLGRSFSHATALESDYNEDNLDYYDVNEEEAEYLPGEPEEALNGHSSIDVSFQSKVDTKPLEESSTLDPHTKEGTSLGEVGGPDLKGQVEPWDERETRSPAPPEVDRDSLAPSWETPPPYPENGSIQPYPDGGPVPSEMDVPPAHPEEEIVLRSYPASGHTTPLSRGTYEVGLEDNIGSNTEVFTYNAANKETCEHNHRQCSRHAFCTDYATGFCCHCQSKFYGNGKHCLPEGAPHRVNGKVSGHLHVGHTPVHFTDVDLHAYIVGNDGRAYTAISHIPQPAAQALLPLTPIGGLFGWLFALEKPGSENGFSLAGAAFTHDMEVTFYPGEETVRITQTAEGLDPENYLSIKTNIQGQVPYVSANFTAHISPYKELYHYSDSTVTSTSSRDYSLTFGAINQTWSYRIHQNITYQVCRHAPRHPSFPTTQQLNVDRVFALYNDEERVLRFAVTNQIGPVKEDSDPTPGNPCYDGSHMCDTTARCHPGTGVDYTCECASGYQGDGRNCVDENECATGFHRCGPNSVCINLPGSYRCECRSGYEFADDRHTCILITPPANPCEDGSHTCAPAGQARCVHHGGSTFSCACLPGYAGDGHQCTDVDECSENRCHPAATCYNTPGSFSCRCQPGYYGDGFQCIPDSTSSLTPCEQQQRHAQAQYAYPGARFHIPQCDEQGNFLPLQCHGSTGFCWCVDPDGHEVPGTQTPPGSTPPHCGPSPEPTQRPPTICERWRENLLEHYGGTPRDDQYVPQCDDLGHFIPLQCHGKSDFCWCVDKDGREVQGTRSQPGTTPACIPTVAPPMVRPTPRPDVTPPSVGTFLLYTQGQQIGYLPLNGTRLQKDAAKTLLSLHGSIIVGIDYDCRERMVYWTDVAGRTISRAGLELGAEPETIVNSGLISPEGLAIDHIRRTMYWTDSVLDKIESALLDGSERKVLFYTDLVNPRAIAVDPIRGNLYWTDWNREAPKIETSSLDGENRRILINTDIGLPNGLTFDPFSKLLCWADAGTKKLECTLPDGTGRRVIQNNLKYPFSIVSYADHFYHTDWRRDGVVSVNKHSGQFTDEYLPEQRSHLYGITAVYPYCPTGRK
Chain of Human MPZ (human) (P25189 30-153 limits assumed): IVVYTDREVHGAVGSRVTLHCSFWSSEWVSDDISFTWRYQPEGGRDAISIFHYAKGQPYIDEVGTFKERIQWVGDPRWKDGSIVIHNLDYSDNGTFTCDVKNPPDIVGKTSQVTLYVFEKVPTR

As for LSSPLSL (peptide), the Count in the assay with Human MPZ (human) [1] and with Human MPZ (human) [2] was 56 throughout. Regarding ETTRNYG (peptide), the figures for the Count with Human MPZ (human) [1] and with Human MPZ (human) [2] were 68 and 69, respectively.

In turn, NILSQVN (peptide) returned a Count in the assay with Human Nidogen-2 (human) of 6. Regarding VLTKPMP (peptide), the Count with Human MPZ (human) [1] and with Human MPZ (human) [2] was 56 throughout.

LSIRGLT (peptide) gave a Count with Human Nidogen-2 (human) of 6. On to DRNSVFW (peptide), for which the Count in the assay with Human MPZ (human) [1] and with Human MPZ (human) [2] was 50 in each case. For the molecule IKPPYTH (peptide), the results for the Count with Human MPZ (human) [1] and with Human MPZ (human) [2] were 78 and 82, respectively.

On to KMAGHTV (peptide), for which the values for the Count with Human MPZ (human) [1] and in the assay with Human MPZ (human) [2] were 51 and 54, respectively. Take MQTQGRV (peptide): the Count in assay [3] turned out to be 12.

Turning to QNTGLKW (peptide), the Count in assay [3] and in assay [4] was 11 each time. As to TMASPAK (peptide), the Count with Human MPZ (human) [1] was found to be 52; with Human MPZ (human) [2], 58.

For SAHAKHH (peptide), the Count is 51 with Human MPZ (human) [1] and 52 with Human MPZ (human) [2].

For the molecule EAMMHRN (peptide), in the assay with Human Nidogen-2 (human), the Count turned out to be 6.

On to GPLRMAT (peptide), for which the Count worked out at 50 in the assay with Human MPZ (human) [1] and 51 in the assay with Human MPZ (human) [2].

Consider YNHTMMY (peptide), for which the Count in the assay with Human Nidogen-2 (human) is 7. As for ARMAFSL (peptide), the Count with Human Nidogen-2 (human) was 7. With HRLPWHH (peptide), the Count in assay [3] and in assay [4] was 10 throughout. Take TSPWELR (peptide): the Count with Human MPZ (human) [1] is 107; with Human MPZ (human) [2] it was 108.

On to HSRLPTP (peptide), for which the Count with Human Nidogen-2 (human) is 13. TESLFPH (peptide): the Count was 50 in the assay with Human MPZ (human) [1] and 52 with Human MPZ (human) [2]. For the molecule WLAAGSQ (peptide), in the assay with Human Nidogen-2 (human), the Count stood at 6. As to DPWVMLR (peptide), the Count in assay [3] and in assay [4] was 11 in each case. ALPLSAS (peptide): the Count with Human MPZ (human) [1] turned out to be 196; with Human MPZ (human) [2], 197. On to GLRTMEP (peptide), for which the Count in the assay with Human Nidogen-2 (human) came to 7.

WTMKPNY (peptide): the results for the Count in assay [3] and in assay [4] were 13 and 14, respectively. Turning to WPSISRP (peptide), the Count worked out at 57 in the assay with Human MPZ (human) [1] and 58 with Human MPZ (human) [2]. On to LVHPFHG (peptide), for which the Count with Human Nidogen-2 (human) amounted to 8. With DGKNTSN (peptide), the Count in assay [3] worked out at 10. In the case of AWSTSSV (peptide), the Count in assay [3] and in assay [4] was 12 throughout. For the molecule DPITRLK (peptide), the Count was 92 with Human MPZ (human) [1] and 93 in the assay with Human MPZ (human) [2]. Molecule LHITPEV (peptide) displayed a Count with Human Nidogen-2 (human) of 6. Still for that read-out and setting: the value for QLLESRT (peptide) was 6. Molecule NDTKTPS (peptide) showed a Count in assay [3] of 19.

In turn, QTLRPKQ (peptide) returned a Count in the assay with Human Nidogen-2 (human) of 6. The molecule AGFPPNT (peptide) yielded a Count in assay [3] of 10. Consider VLKNNPT (peptide), for which the Count amounted to 86 with Human MPZ (human) [1] and 87 in the assay with Human MPZ (human) [2].

In the assay with Human Nidogen-2 (human), ALYLPGR (peptide) gave a Count of 7. In the case of QIGVLPS (peptide), the Count in assay [3] amounted to 11. SHSPGNK (peptide): the Count with Human MPZ (human) [1] was found to be 67; with Human MPZ (human) [2], 79. With TPWLPTI (peptide), in the assay with Human Nidogen-2 (human), the Count came to 7. Molecule LRPISHE (peptide) had a Count in assay [3] of 12. Regarding HPSTWHK (peptide), the Count in assay [3] came to 18.

Molecule ATYNMSQ (peptide) yielded a Count with Human Nidogen-2 (human) of 7. For TIASLLV (peptide), the Count with Human Nidogen-2 (human) was determined as 6. In the assay with Human Nidogen-2 (human), QMDAKHM (peptide) displayed a Count of 6. As for SPDRTSL (peptide), the Count in assay [3] and in assay [4] was 12 each time. In turn, SVLRMLN gave a Count in assay [5] of 16. Same read-out and setting: next, SKSDAWR: 14; ILLPSLN: 13. In assay [5], AITSRNA registered a Count of 15.
